Assay results published in article PMC8432352.

What was measured:
Assay in all cases: SDS-PAGE without heating
[1] = molecular target: Tail spike protein 1 (TSP1) of Salmonella phage S117 (Salmonella phage S117)
[2] = molecular target: Tail spike protein 2 (TSP2) of Salmonella phage S117 (Salmonella phage S117)
[3] = molecular target: Tail spike protein 3 (TSP3) of Salmonella phage S117 (Salmonella phage S117)
[4] = molecular target: Tail spike protein 4 (TSP4) of Salmonella phage S117 (Salmonella phage S117)

**Q.** Which stoichiometry N [1] does the source give for “Tail spike protein 1 (TSP1) of Salmonella phage S117 (natural protein)” here?
**A.** 3

**Q.** How did the stoichiometry N [2] turn out when “Tail spike protein 2 (TSP2) of Salmonella phage S117 (natural protein)” was run?
**A.** 3

**Q.** How did the stoichiometry N [3] turn out when “Tail spike protein 3 (TSP3) of Salmonella phage S117 (natural protein)” was run?
**A.** 3

**Q.** With “Tail spike protein 4 (TSP4) of Salmonella phage S117 (natural protein)” as the substance, how does the stoichiometry N [4] read?
**A.** 3
